In paper doi:10.1101/2025.02.13.638105:
Read-outs that look alike come from different tables or passages of the source.

Key:
[1] = molecular target: human recombinant wildtype neurofibromin isoform I (human) (UniProt P21359); assay: cryo-EM structure
[2] = molecular target: human recombinant wildtype neurofibromin isoform I (human) (UniProt P21359); assay: cryo-EM structure; remark: listed apart in the source

In the case of “human recombinant wildtype neurofibromin isoform I, P21359-2 1-2818”, the dimers per tetramer (counts of single particles) [1] is reported as 4, the stoichiometry N [1] is reported as 4 and the stoichiometry N [2] is reported as 2.
